Test results as given in the supplement of paper PMC10567573.

B1: PPFIA4 (parent)
chain: YAGNLHESGVHGALLALDENFDHN

Variants of: B1
Test: protein stability index of a GFP-peptide fusion (GPS, HEK-293T) (PSI 1-6); higher = more stable
Details: c terminus: a fixed tail appended
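Also: lentivirally expressed fusions sorted by FACS into six bins by GFP to DsRed ratio, PSI derived from sequencing read proportions per bin multiplied by bin number.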

Protein stability index, by site and new letter:
D18: F 1.69 | Y 2.14 | C 1.34 | H 2.11 | W 2 | G 1.95 | V 2.07 | A 1.66 | E 2.82 | R 2.55 | M 2.38 | P 2.16 | K 2.54 | S 1.87 | N 2.74 | Q 2.65 | I 2.2 | L 1.76 | T 2.13
L15: T 3.78 | R 2.8 | M 2.93 | A 4.13 | C 3.06 | K 3.46 | E 4.23 | V 3.29 | S 3.87 | P 4.09 | H 3.31 | F 2.2 | N 3.89 | Y 2.31 | Q 3.52 | I 2.22 | D 4.06 | G 3.54
D22: C 1.65 | A 2.56
A16: T 3.34 | H 3.25 | N 3.23 | L 2.36 | K 2.73 | Q 3.31 | R 2.99 | M 2.43 | C 2.39 | I 1.97 | G 1.77 | Y 2.06 | S 3.2 | W 3.58 | F 3.06 | P 3.43 | D 3.85 | E 4.12 | V 2.31
A13: P 2.96 | T 2.86 | W 3.04 | R 2.41 | V 2.07 | S 2.33 | H 2.67 | Q 3.8 | L 2.06 | I 1.86 | Y 3.02 | K 2.96 | N 2.66 | M 1.49
F21: W 2.69 | N 3.85 | E 3.93 | G 3.58 | V 2.63 | C 3.23 | A 2.9 | I 2.69 | P 3.45 | R 2.53 | H 3 | Q 3.08 | K 2.89 | M 2.85 | D 3.92 | Y 2.6 | S 3.56 | T 3.37 | L 3.51
L17: W 2.4 | V 2.47 | S 4.03 | N 3.86 | Y 1.76 | A 3.43 | P 3.35 | G 3.4 | R 3.31 | K 3.24 | T 3.04 | C 3.21 | H 4.06 | M 2.96 | I 2.02 | D 4.18 | E 4.52 | Q 3.37 | F 2.16
L14: H 3.8 | K 3.15 | I 1.97 | S 3.45 | M 3.07 | Y 2.47 | W 1.43 | F 1.81 | C 2.36 | E 3.83 | D 4.59 | V 2.16 | N 3.8 | G 3.63 | A 3.27 | Q 4.02 | R 3.31 | P 4.03 | T 3.56
N20: A 2.68 | Y 2.24 | Q 1.86 | V 2.42 | K 2.23 | E 3.07 | T 2.16 | G 3.1 | M 2.09 | H 2.48 | R 2.25 | W 2.27 | D 2.98 | C 2.32 | S 2.58 | L 1.63 | I 1.79 | P 2.63 | F 2.17
E19: A 2.08 | H 1.31 | D 2.6 | F 1.61 | V 2 | S 1.54 | I 2.97 | R 2.06 | T 2.68 | Y 1.61 | M 1.65 | N 2.2 | Q 1.64 | P 1.6 | G 2.1 | W 3.17 | L 1.24 | K 1.5 | C 1.33
